Patent US20180049457A1, “ENZYMATIC SYNTHESIS OF SOLUBLE GLUCAN FIBER” (E I DU PONT DE NEMOURS AND COMPANY, priority 2014, published 2018)

Experiment: GTF activity of strains (PAHBAH assay)
Type: biochemical
Details: enzyme expressed in B. subtilis host
Method: GTF activity of the strains was analyzed by PAHBAH assay in three separate experiments. Due to minor variations between the expeirments, Table 2 lists the activity of the truncated enzymes in the B. subtilis host along with the experiment in which the activity was measured. Most of the T1, T2, and T6 truncations decreased the activity of the enzymes, whereas the T4 and T5 C-terminal truncations retained similar activity relative to the respective N terminal-only truncations (NT). […] To identify specific amino acid residues within the catalytic domain that may be involved in producing the soluble α-glucan fiber, we analyzed the crystal structures (PDB Identifiers: 3AIB, 3AIC, and 3HZ3) of the catalytic domains of three glucosyltransferases to identify residues within 8 Angstroms of the bound ligand. 57 residues met that criterion. A motif was generated based on the corresponding 57 amino acids in GTF0459 and each of the identified homologs. The motif was then used to generate a consensus sequence to capture the variability in the catalytic domains of GTF0459 and the identified homologs. The consensus sequence is provided as SEQ ID NO: 153.

| Molecule | GTF activity of strains: Acitivity (Experiment Number 2) | GTF activity of strains: Acitivity (Experiment Number 1) |
| --- | --- | --- |
| GTF4491T4: T4 C-terminal truncation of GTF4491, SEQ ID NO: 132, strain SG1320 (protein, T4 C-terminal truncation of GTF4491) INGKQYYVNSDGSVRKNFVFEQDGKSYYFDAETGALATKSQDEFSTEPIKATVDFSSGNQLYKNDDKSLDQLDTFITADAWYRPKSILKDGKTWTASTEADKRPLLMVWWPDKSTQVNYLNYMQNQGLGAGSFSTNSSQESLDQAAKAVQTKIEERIAREGNTNWLRTSIDQFIKTQPGWNSSTENSSYDHLQGGQLLFNNSKGDTGNRTSHANSDYRLLNRTPTNQTGTRKYFKDNSIGGLEFLLANDIDNSNPAVQAEQLNWLHFMMNIGSIMANDPTANFDGLRVDALDNVDADLLQIASDYFKAAYGVDKSEANAIKHLSYLEAWSANDPYYNKDTKGAQLPIDNALRNALTNLLMRDKNTRMQLGDMTAFINSSLNPRGANDKNGERMANYIFTRAHDTEAQTIIQRIIRDRINPNLFGYNFTRDEIKKAFEIYNEDIDKAHKTYASYNLPSVYALMLTNKDSVTRVYYGDLYREDGHYMAKKTPYFDAIDTLLRARIKYVAGGQDMEVKKVGNDGLLTSVRYGKGANNRTDLGTSETRTQGMGVIMTNNYDFRLGSNETVTMNMGRAHRNQLYRPLLLTTKDGIATYLNDSDVPKNLLKRTDWNGNLTFNANDVFGVENVQVSGYLGVWVPYGAKANQDARTQPSNRANSDGQVYKSSAALDSQVMYEAFSNFQAFADDQPELYMNRVLAKNTDLLKAWGITSVGLPPQYVSSKDGTFLDSIIDNGYAFDDRYDMALSQNNKYGSLEDLLNVLRALHKDGIQAIADWVPDQIYNLPGKEVVNATRVNGYGYHQQGYQIVDQAYVANTRTDGTDYQGKYGGAFLDELKAKYPSIFNRVQISNGKQLPTNEKITKWSAKYFNGTNILGRGINFVLRDDKTNQYFNTSANSQLLPTPLRDTGAITSTQVFQRRGQDVYFLRDNQTVKNEFVQDGNGNWYYFGGDGKMTKGAQNINSKDYYFFDNGVQLRNALRRASNGYTYYYGLDGAMVKNAFVDFDDKHK | 45.3 U/mL | – |
| GTF4491T5: T5 C-terminal truncation of GTF4491, SEQ ID NO: 122, strain SG1321 (protein, T5 C-terminal truncation of GTF4491) INGKQYYVNSDGSVRKNFVFEQDGKSYYFDAETGALATKSQDEFSTEPIKATVDFSSGNQLYKNDDKSLDQLDTFITADAWYRPKSILKDGKTWTASTEADKRPLLMVWWPDKSTQVNYLNYMQNQGLGAGSFSTNSSQESLDQAAKAVQTKIEERIAREGNTNWLRTSIDQFIKTQPGWNSSTENSSYDHLQGGQLLFNNSKGDTGNRTSHANSDYRLLNRTPTNQTGTRKYFKDNSIGGLEFLLANDIDNSNPAVQAEQLNWLHFMMNIGSIMANDPTANFDGLRVDALDNVDADLLQIASDYFKAAYGVDKSEANAIKHLSYLEAWSANDPYYNKDTKGAQLPIDNALRNALTNLLMRDKNTRMQLGDMTAFINSSLNPRGANDKNGERMANYIFTRAHDTEAQTIIQRIIRDRINPNLFGYNFTRDEIKKAFEIYNEDIDKAHKTYASYNLPSVYALMLTNKDSVTRVYYGDLYREDGHYMAKKTPYFDAIDTLLRARIKYVAGGQDMEVKKVGNDGLLTSVRYGKGANNRTDLGTSETRTQGMGVIMTNNYDFRLGSNETVTMNMGRAHRNQLYRPLLLTTKDGIATYLNDSDVPKNLLKRTDWNGNLTFNANDVFGVENVQVSGYLGVWVPYGAKANQDARTQPSNRANSDGQVYKSSAALDSQVMYEAFSNFQAFADDQPELYMNRVLAKNTDLLKAWGITSVGLPPQYVSSKDGTFLDSIIDNGYAFDDRYDMALSQNNKYGSLEDLLNVLRALHKDGIQAIADWVPDQIYNLPGKEVVNATRVNGYGYHQQGYQIVDQAYVANTRTDGTDYQGKYGGAFLDELKAKYPSIFNRVQISNGKQLPTNEKITKWSAKYFNGTNILGRGINFVLRDDKTNQYFNTSANSQLLPTPLRDTGAITSTQVFQRRGQDVYFLRDNQTVKNEFVQDGNGNWYYFGGDGKMTKGAQNINSKDYYFFDNGVQLRNALRRASNGYTYYYGLDGAMVKNAFVDFDDKHKQ | 50.6 U/mL | – |
| GTF4336NT: N terminal-only truncated GTF4336 from Streptococcus salivarius SK126, SEQ ID NO: 104, strain SG1291 (protein, Streptococcus salivarius SK126) INGKQYYVNSDGSVRKNFVFEQDGKSYYFDAETGALATKSQDEFSTEPIKATVDFSSGNQLYKNDDKSLDQLDTFITADAWYRPKSILKDGKTWTASTEADKRPLLMVWWPDKSTQVNYLNYMQNQGLGAGSFSTNSSQESLDQAAKAVQTKIEERIAREGNTNWLRTSIDQFIKTQPGWNSSTENSSYDHLQGGQLLFNNSKGDTGNRTSHANSDYRLLNRTPTNQTGTRKYFKDNSIGGLEFLLANDIDNSNPAVQAEQLNWLHFMMNIGSIMANDPTANFDGLRVDALDNVDADLLQIASDYFKAAYGVDKSEANAIKHLSYLEAWSANDPYYNKDTKGAQLPIDNALRNALTNLLMRDKNTRMQLGDMTAFINSSLNPRGANDKNGERMANYIFTRAHDTEAQTIIQRIIRDRINPNLFGYNFTRDEIKKAFEIYNEDIDKAHKTYASYNLPSVYALMLTNKDSVTRVYYGDLYREDGHYMAKKTPYFDAIDTLLRARIKYVAGGQDMEVKKVGNDGLLTSVRYGKGANNRTDLGTSETRTQGMGVIMTNNYDFRLGSNETVTMNMGRAHRNQLYRPLLLTTKDGIATYFNDSDVPKNLLKRTDWNGNLTFNANDVFGVENVQVSGYLGVWVPVGAKANQDARTQPSNRANSDGQVYKSSAALDSQVMYEAFSNFQAFADDQPELYMNRVLAKNTDLLKAWGVTSVGLPPQYVSSKDGTFLDSTIDNGYAFDDRYDMALSQNNKYGSLEDLLNVLRALHKDGIQAIADWVPDQIYNLPGKEVVNATRVNGYGYHQQGYQIVDQAYVANTRTDGTDYQGKYGGAFLDELKAKYPSIFNRVQISNGKQLPTNEKITKWSAKYFNGTNILGRGINYVLRDDKTNQYFNTSANSQLLPTPLRDTGAITSTQVFQRRGQDVYFLRDNQAVKNEFVQDGNGNWYYFGADGKMTKGAQTINKKDYYFFDNGIQLRNALRRANNGYTYYYGLDGAMVKNAFVDFDDKRKQVRAFTTQGTMVVGNLHWSGHHFYFDRETGIQAKDRIVRTDDGKLHYYVAGTGDMGRNVFATDSSTGKRYYFDADGNTVTGSRVIDGKTYYFNQDGSVGTAYSNRADSIIFENGKARYITPAGEIGRSIFVYNPATKAWNYFDKEGNRVTGRQYIDGHLYYFKEDGSQAKGEIIEENGIKYYYEPESGILASGRYLQVGDDQWMYFKQDGSLAIGQVRADHGYLKYFDKNGIQVKGKTIVEDGKTYYYDAHSGALVTSSFAEIAPNQWSYFNTDGQALKGKWTINGKEYYFDQNGIQYKGKAVKVGSRYKYYDENDGQPVTNRFAQIEPNVWAYFGADGYAVTGEQVINGQHLYFDQSGRQVKGAYVTVNGQRRYYDANTGEYVPGR | 48.6 U/mL | 34.5 U/mL |
